Measurements: US20260242735A1

Molecular target: human CD33 G58A (human) (UniProt P20138)
Test: alanine scan, flow cytometry, HEK293-T

Sequence of human CD33 G58A (human) (P20138 18-364 G58A limits assumed): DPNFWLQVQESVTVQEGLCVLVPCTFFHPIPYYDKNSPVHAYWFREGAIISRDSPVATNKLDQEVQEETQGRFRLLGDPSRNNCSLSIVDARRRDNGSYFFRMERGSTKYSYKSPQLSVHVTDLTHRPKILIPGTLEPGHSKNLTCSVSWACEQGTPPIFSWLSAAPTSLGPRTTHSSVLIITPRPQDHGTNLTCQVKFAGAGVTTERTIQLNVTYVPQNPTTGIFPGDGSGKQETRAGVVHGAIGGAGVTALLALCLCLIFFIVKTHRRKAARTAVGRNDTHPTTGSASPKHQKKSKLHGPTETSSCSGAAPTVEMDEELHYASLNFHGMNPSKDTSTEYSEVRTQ

Substance: Refmab #7 (WM53) (antibody)
- Mean % WT Binding: 97.2 % WT binding
